Patent US20130011412A1

Biological target: T1, recombinant human lymphotoxin-α homotrimer (human LTα3) (human) (UniProt P01374)
T1 sequence (looked up): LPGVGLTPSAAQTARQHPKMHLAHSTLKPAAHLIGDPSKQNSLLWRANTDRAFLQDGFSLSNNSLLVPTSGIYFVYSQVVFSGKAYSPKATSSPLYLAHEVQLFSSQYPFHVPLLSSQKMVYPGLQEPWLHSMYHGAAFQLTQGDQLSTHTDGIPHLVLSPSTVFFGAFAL
Test: plate-based ELISA against LTα

Binder | relative binding (EC50 of the variant / EC50 of version 5)
3F12 version 8 (3F12.v5 with G95A, CDR-H3) (antibody, IgG1, V domains shown) VH: EVQLVESGGGLVQPGGSLRLSCAASGYTFSSYWIEWVRQAPGKGLEWVGEISPGSGSTNYNEEFKGRATFSADNSKNTAYLQMNSLRAEDTAVYYCADAYHGYWGQGTLVTVSS VL: DIQMTQSPSSLSASVGDRVTITCKSSQSLLYSTNQKNFLAWYQQKPGKAPKLLIYWASTRDSGVPSRFSGSGSGTDFTLTISSLQPEDFATYYCQQYYSYPRTFGQGTKVEIK | > 100
3F12 version 10 (3F12.v5 with H100A, CDR-H3) (antibody, IgG1, V domains shown) VH: EVQLVESGGGLVQPGGSLRLSCAASGYTFSSYWIEWVRQAPGKGLEWVGEISPGSGSTNYNEEFKGRATFSADNSKNTAYLQMNSLRAEDTAVYYCADGYAGYWGQGTLVTVSS VL: DIQMTQSPSSLSASVGDRVTITCKSSQSLLYSTNQKNFLAWYQQKPGKAPKLLIYWASTRDSGVPSRFSGSGSGTDFTLTISSLQPEDFATYYCQQYYSYPRTFGQGTKVEIK | > 100
